Experimental data taken from patent US20210032299A1 (Eli Lilly, published 2021).
Starred links: 1 amine or outer side, 2 acyl side, 3 side chain; linkers in the order of their positions; H or OH if unused. Non-standard residues stand in square brackets, D forms with d. Groups on a side chain read outwards from the residue. No end group written: not given here. *: point of attachment. C20 diacid = O=C(O)CCCCCCCCCCCCCCCCCCC(=O)*; γGlu = O=C(O)[C@H](CCC(=O)[*:2])N[*:1]; αMeF = C[C@](N)(Cc1ccccc1)C(=O)O; 4Pal = N[C@@H](Cc1ccncc1)C(=O)O; αMeL = CC(C)C[C@](C)(N)C(=O)O; AEEA = NCCOCCOCC(=O)O; Aib = CC(C)(N)C(=O)O

T1: human glucose-dependent insulinotropic peptide receptor (human, UniProt P48546 22-466)
T1 sequence (looked up): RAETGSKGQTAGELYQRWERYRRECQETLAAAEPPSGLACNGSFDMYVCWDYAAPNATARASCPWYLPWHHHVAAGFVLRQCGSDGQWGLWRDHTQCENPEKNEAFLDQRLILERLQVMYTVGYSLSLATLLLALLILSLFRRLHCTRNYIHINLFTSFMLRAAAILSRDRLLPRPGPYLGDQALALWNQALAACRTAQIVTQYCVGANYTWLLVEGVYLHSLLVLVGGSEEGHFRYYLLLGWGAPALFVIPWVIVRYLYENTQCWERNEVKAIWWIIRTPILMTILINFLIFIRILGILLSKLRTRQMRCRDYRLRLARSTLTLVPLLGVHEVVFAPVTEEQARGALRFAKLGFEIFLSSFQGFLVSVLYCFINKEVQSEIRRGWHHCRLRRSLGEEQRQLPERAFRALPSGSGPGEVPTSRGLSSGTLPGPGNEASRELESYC


Tests used:
Assay in all cases: cell-based or functional assay
human glucagon receptor = human glucagon receptor (human, UniProt P47871 26-477)
Sequence of human glucagon receptor (P47871 26-477): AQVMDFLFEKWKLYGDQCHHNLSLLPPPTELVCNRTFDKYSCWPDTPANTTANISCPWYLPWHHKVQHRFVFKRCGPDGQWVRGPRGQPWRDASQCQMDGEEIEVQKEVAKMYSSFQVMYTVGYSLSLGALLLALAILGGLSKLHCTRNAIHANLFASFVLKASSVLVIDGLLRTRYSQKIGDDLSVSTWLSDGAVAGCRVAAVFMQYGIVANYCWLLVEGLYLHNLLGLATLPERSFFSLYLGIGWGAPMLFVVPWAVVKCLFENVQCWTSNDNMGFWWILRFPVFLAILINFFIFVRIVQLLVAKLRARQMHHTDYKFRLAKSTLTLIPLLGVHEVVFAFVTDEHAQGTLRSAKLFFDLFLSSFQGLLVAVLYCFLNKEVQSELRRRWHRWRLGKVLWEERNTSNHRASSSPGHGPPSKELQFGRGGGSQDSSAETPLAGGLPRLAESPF

[1] = target: T1, human glucose-dependent insulinotropic …
human GLP-1 receptor = human GLP-1 receptor (human, UniProt P43220 24-463)

Binder | hGcgR cAMP Rel EC50 (human glucagon receptor) | hGIPR cAMP Rel EC50 [1] | hGLP1R cAMP Rel EC50 (human GLP-1 receptor)
Y[Aib]EGT[αMeF]ISDYSIALDKK([AEEA-AEEA-γGlu-C20 diacid])HQ[Aib]DFVE[4Pal]LLEAGPSSGAPPPS-NH2 (N-terminus assumed; SMILES CC[C@H](C)[C@H](NC(=O)[C@H](CO)NC(=O)[C@H](Cc1ccc(O)cc1)NC(=O)[C@H](CC(=O)O)NC(=O)[C@H](CO)NC(=O)[C@@H](NC(=O)[C@](C)(Cc1ccccc1)NC(=O)[C@@H](NC(=O)CNC(=O)[C@H](CCC(=O)O)NC(=O)C(C)(C)NC(=O)[C@@H](N)Cc1ccc(O)cc1)[C@@H](C)O)[C@@H](C)CC)C(=O)N[C@@H](C)C(=O)N[C@@H](CC(C)C)C(=O)N[C@@H](CC(=O)O)C(=O)N[C@@H](CCCCN)C(=O)N[C@@H](CCCCNC(=O)COCCOCCNC(=O)COCCOCCNC(=O)CC[C@H](NC(=O)CCCCCCCCCCCCCCCCCCC(=O)O)C(=O)O)C(=O)N[C@@H](Cc1c[nH]cn1)C(=O)N[C@@H](CCC(N)=O)C(=O)NC(C)(C)C(=O)N[C@@H](CC(=O)O)C(=O)N[C@@H](Cc1ccccc1)C(=O)N[C@H](C(=O)N[C@@H](CCC(=O)O)C(=O)N[C@@H](Cc1ccncc1)C(=O)N[C@@H](CC(C)C)C(=O)N[C@@H](CC(C)C)C(=O)N[C@@H](CCC(=O)O)C(=O)N[C@@H](C)C(=O)NCC(=O)N1CCC[C@H]1C(=O)N[C@@H](CO)C(=O)N[C@@H](CO)C(=O)NCC(=O)N[C@@H](C)C(=O)N1CCC[C@H]1C(=O)N1CCC[C@H]1C(=O)N1CCC[C@H]1C(=O)N[C@@H](CO)C(N)=O)C(C)C) [Example 43] | > 5000 nM | 0.0154 nM | 1020 nM
Y[Aib]EGTFISDYSI[αMeL]LDKK([AEEA-AEEA-γGlu-C20 diacid])HQ[Aib]DFVE[4Pal]LLETGPSSGAPPPS-NH2 (N-terminus assumed; SMILES CC[C@H](C)[C@H](NC(=O)[C@H](Cc1ccccc1)NC(=O)[C@@H](NC(=O)CNC(=O)[C@H](CCC(=O)O)NC(=O)C(C)(C)NC(=O)[C@@H](N)Cc1ccc(O)cc1)[C@@H](C)O)C(=O)N[C@@H](CO)C(=O)N[C@@H](CC(=O)O)C(=O)N[C@@H](Cc1ccc(O)cc1)C(=O)N[C@@H](CO)C(=O)N[C@H](C(=O)N[C@@](C)(CC(C)C)C(=O)N[C@@H](CC(C)C)C(=O)N[C@@H](CC(=O)O)C(=O)N[C@@H](CCCCN)C(=O)N[C@@H](CCCCNC(=O)COCCOCCNC(=O)COCCOCCNC(=O)CC[C@H](NC(=O)CCCCCCCCCCCCCCCCCCC(=O)O)C(=O)O)C(=O)N[C@@H](Cc1c[nH]cn1)C(=O)N[C@@H](CCC(N)=O)C(=O)NC(C)(C)C(=O)N[C@@H](CC(=O)O)C(=O)N[C@@H](Cc1ccccc1)C(=O)N[C@H](C(=O)N[C@@H](CCC(=O)O)C(=O)N[C@@H](Cc1ccncc1)C(=O)N[C@@H](CC(C)C)C(=O)N[C@@H](CC(C)C)C(=O)N[C@@H](CCC(=O)O)C(=O)N[C@H](C(=O)NCC(=O)N1CCC[C@H]1C(=O)N[C@@H](CO)C(=O)N[C@@H](CO)C(=O)NCC(=O)N[C@@H](C)C(=O)N1CCC[C@H]1C(=O)N1CCC[C@H]1C(=O)N1CCC[C@H]1C(=O)N[C@@H](CO)C(N)=O)[C@@H](C)O)C(C)C)[C@@H](C)CC) [Example 45] | 1690 nM | 0.049 nM | > 5000 nM
Y[Aib]EGT[αMeF]ISDYSIALDKK([AEEA-AEEA-γGlu-C20 diacid])HQ[Aib]DFVE[4Pal]LLEQGPSSGAPPPS-NH2 (N-terminus assumed; SMILES CC[C@H](C)[C@H](NC(=O)[C@H](CO)NC(=O)[C@H](Cc1ccc(O)cc1)NC(=O)[C@H](CC(=O)O)NC(=O)[C@H](CO)NC(=O)[C@@H](NC(=O)[C@](C)(Cc1ccccc1)NC(=O)[C@@H](NC(=O)CNC(=O)[C@H](CCC(=O)O)NC(=O)C(C)(C)NC(=O)[C@@H](N)Cc1ccc(O)cc1)[C@@H](C)O)[C@@H](C)CC)C(=O)N[C@@H](C)C(=O)N[C@@H](CC(C)C)C(=O)N[C@@H](CC(=O)O)C(=O)N[C@@H](CCCCN)C(=O)N[C@@H](CCCCNC(=O)COCCOCCNC(=O)COCCOCCNC(=O)CC[C@H](NC(=O)CCCCCCCCCCCCCCCCCCC(=O)O)C(=O)O)C(=O)N[C@@H](Cc1c[nH]cn1)C(=O)N[C@@H](CCC(N)=O)C(=O)NC(C)(C)C(=O)N[C@@H](CC(=O)O)C(=O)N[C@@H](Cc1ccccc1)C(=O)N[C@H](C(=O)N[C@@H](CCC(=O)O)C(=O)N[C@@H](Cc1ccncc1)C(=O)N[C@@H](CC(C)C)C(=O)N[C@@H](CC(C)C)C(=O)N[C@@H](CCC(=O)O)C(=O)N[C@@H](CCC(N)=O)C(=O)NCC(=O)N1CCC[C@H]1C(=O)N[C@@H](CO)C(=O)N[C@@H](CO)C(=O)NCC(=O)N[C@@H](C)C(=O)N1CCC[C@H]1C(=O)N1CCC[C@H]1C(=O)N1CCC[C@H]1C(=O)N[C@@H](CO)C(N)=O)C(C)C) [Example 42] | > 5000 nM | 0.0091 nM | 815 nM
Y[Aib]EGT[αMeF]ISDYSIALDKK([AEEA-AEEA-γGlu-C20 diacid])HQ[Aib]DFVE[4Pal]LLEGGPSSGAPPPS-NH2 (N-terminus assumed; SMILES CC[C@H](C)[C@H](NC(=O)[C@H](CO)NC(=O)[C@H](Cc1ccc(O)cc1)NC(=O)[C@H](CC(=O)O)NC(=O)[C@H](CO)NC(=O)[C@@H](NC(=O)[C@](C)(Cc1ccccc1)NC(=O)[C@@H](NC(=O)CNC(=O)[C@H](CCC(=O)O)NC(=O)C(C)(C)NC(=O)[C@@H](N)Cc1ccc(O)cc1)[C@@H](C)O)[C@@H](C)CC)C(=O)N[C@@H](C)C(=O)N[C@@H](CC(C)C)C(=O)N[C@@H](CC(=O)O)C(=O)N[C@@H](CCCCN)C(=O)N[C@@H](CCCCNC(=O)COCCOCCNC(=O)COCCOCCNC(=O)CC[C@H](NC(=O)CCCCCCCCCCCCCCCCCCC(=O)O)C(=O)O)C(=O)N[C@@H](Cc1c[nH]cn1)C(=O)N[C@@H](CCC(N)=O)C(=O)NC(C)(C)C(=O)N[C@@H](CC(=O)O)C(=O)N[C@@H](Cc1ccccc1)C(=O)N[C@H](C(=O)N[C@@H](CCC(=O)O)C(=O)N[C@@H](Cc1ccncc1)C(=O)N[C@@H](CC(C)C)C(=O)N[C@@H](CC(C)C)C(=O)N[C@@H](CCC(=O)O)C(=O)NCC(=O)NCC(=O)N1CCC[C@H]1C(=O)N[C@@H](CO)C(=O)N[C@@H](CO)C(=O)NCC(=O)N[C@@H](C)C(=O)N1CCC[C@H]1C(=O)N1CCC[C@H]1C(=O)N1CCC[C@H]1C(=O)N[C@@H](CO)C(N)=O)C(C)C) [Example 44] | > 5000 nM | 0.0084 nM | 1180 nM
Y[Aib]EGT[αMeF]ISDYSIALDKK([AEEA-AEEA-γGlu-C20 diacid])HQ[Aib]DFVE[4Pal]LLETGPSSGAPPPS-NH2 (N-terminus assumed; SMILES CC[C@H](C)[C@H](NC(=O)[C@H](CO)NC(=O)[C@H](Cc1ccc(O)cc1)NC(=O)[C@H](CC(=O)O)NC(=O)[C@H](CO)NC(=O)[C@@H](NC(=O)[C@](C)(Cc1ccccc1)NC(=O)[C@@H](NC(=O)CNC(=O)[C@H](CCC(=O)O)NC(=O)C(C)(C)NC(=O)[C@@H](N)Cc1ccc(O)cc1)[C@@H](C)O)[C@@H](C)CC)C(=O)N[C@@H](C)C(=O)N[C@@H](CC(C)C)C(=O)N[C@@H](CC(=O)O)C(=O)N[C@@H](CCCCN)C(=O)N[C@@H](CCCCNC(=O)COCCOCCNC(=O)COCCOCCNC(=O)CC[C@H](NC(=O)CCCCCCCCCCCCCCCCCCC(=O)O)C(=O)O)C(=O)N[C@@H](Cc1c[nH]cn1)C(=O)N[C@@H](CCC(N)=O)C(=O)NC(C)(C)C(=O)N[C@@H](CC(=O)O)C(=O)N[C@@H](Cc1ccccc1)C(=O)N[C@H](C(=O)N[C@@H](CCC(=O)O)C(=O)N[C@@H](Cc1ccncc1)C(=O)N[C@@H](CC(C)C)C(=O)N[C@@H](CC(C)C)C(=O)N[C@@H](CCC(=O)O)C(=O)N[C@H](C(=O)NCC(=O)N1CCC[C@H]1C(=O)N[C@@H](CO)C(=O)N[C@@H](CO)C(=O)NCC(=O)N[C@@H](C)C(=O)N1CCC[C@H]1C(=O)N1CCC[C@H]1C(=O)N1CCC[C@H]1C(=O)N[C@@H](CO)C(N)=O)[C@@H](C)O)C(C)C) [Example 41] | > 5000 nM | 0.0281 nM | 1800 nM
